Results published in US20120277142A1 (HANALL BIOPHARMA, published 2012).
Where a chain is given by its changes, count along the chain named.

B1: Met-TNFRI171 (receptor)
chain: MDSVCPQGKYIHPQNNSICCTKCHKGTYLYNDCPGPGQDTDCRECESGSFTASENHLRHCLSCSKCRKEMGQVEISSCTVDRDTVCGCRKNQYRHYWSENLFQCFNCSLCLNGTVHLSCQEKQNTVCTCHAGFFLRENECVSCSNCKKSLECTKLCLPQIENVKGTEDSGTT
notes: also called Wild-type (TNFRI171); wild-type TNFRI
B2: TNFRI171-A21 (receptor)
chain: B1 chain with S53I, H56F, R58P, H59G
B3: TNFRI171-A9 (receptor)
chain: B1 chain with S53M, H56F, R58P, H59A
B4: TNFRI171-A2 (receptor)
chain: B1 chain with S53I, H56F, R58P, H59A
B5: TNFRI171-A8 (receptor)
chain: B1 chain with S53F, H56F, R58P, H59A
B6: TNFRI171-A10 (receptor)
chain: B1 chain with S53W, H56F, R58P, H59A
B7: TNFRI171-A30 (receptor)
chain: B1 chain with S53I, E54P, H56F, R58P, H59A
B8: TNFRI171-A16 (receptor)
chain: B1 chain with S53K, H56F, R58P, H59A
B9: TNFRI171-A18 (receptor)
chain: B1 chain with S53H, H56F, R58P, H59A
B10: TNFRI171-A15 (receptor)
chain: B1 chain with S53Y, H56F, R58P, H59A
B11: TNFRI171-A26 (receptor)
chain: B1 chain with S53I, E54P, H56F, R58P, H59G
B12: TNFRI105-S31 (receptor)
chain: MDSVCPQGKYIHPQNNSICCTKCHKGTYVYNDCPGPGQDTDCRECESGSFTAIENFLPACLSCSKCRKEMGQVEISSCTVDRDTVCGCRKNQYRHYWSENLFQCFN
notes: Met-TNFRI105 superlead mutant made in E. coli
B13: TNFRI105-S41 (receptor)
chain: B12 chain with I53H
notes: as for B12
B14: TNFRI105-S36 (receptor)
chain: B12 chain with I53M
notes: as for B12
B15: Met-TNFRI105 (receptor)
chain: B12 chain with V29L, I53S, F56H, P58R, A59H
notes: also called Wild-type (TNFRI105)
B16: TNFRI105-S47 (receptor)
chain: B12 chain with I53M, A59G
notes: as for B12
B17: TNFRI105-S46 (receptor)
chain: B12 chain with A59G
notes: as for B12

Each binder was assayed against T1, TNF-α (UniProt P01375 77-233, limits assumed) (assay: cell-based or functional assay).

Binder | Relative Activity (Cytotoxicity-neutralizing activity) (fold)
B1 | 1 fold
B2 | 226 fold
B3 | 158 fold
B4 | 207 fold
B5 | 120 fold
B6 | 44 fold
B7 | 127 fold
B8 | 139 fold
B9 | 126 fold
B10 | 142 fold
B11 | 196 fold

These binders were tested against T1, TNF-α (assay: competition ELISA: sample vs plate-bound TNFRI190 for TNF-α, from IC50, relative to wild-type TNFRI105).
Method: (§1) Each well was washed three times with 300 μL of washing buffer (0.05% Tween-20, PBS, pH 7.4) and incubated at room temperature for 2 hours with 300 μL of a blocking buffer (5% skim milk, PBS, pH 7.4). Then, each well was washed as mentioned above. A sample of interest was diluted to concentrations of 500 nM, 125 nM, 31 nM, 7.8 nM, 1.9 nM, 0.48 nM, 0.12 nM, and 0.03 nM in series and loaded in an amount of 100 μL into each well in duplicate. To each well was added 100 μL of 50 ng/ml TNF-α, followed by incubation at room temperature for 2 hours. After the wells were washed with a washing buffer, 100 μg/mL anti-TNF-α antibody solution was diluted 1/1000, added in an amount of 100 μL per each well, and incubated at room temperature for 2 hours. After the plates were washed with a washing buffer, a substrate was added in an amount of 100 μL to each well and reacted at room temperature for 15 min. In each well, 100 μL of the substrate 3,3′,5,5′-tetramethylbenzidine (RnD, Cat. No: DY999) was reacted at room temperature for 15 min, followed by adding 50 μL of 1.0 M sulfuric acid (Samchun Chemical, Cat. No: 52129) to each well to stop the reaction.
(§2) The affinity of the Met-TNFRI for TNF-α was assayed using the same procedure as in [Experimental Example 1]

Relative Affinity for Ligand (%) | Binder
453% | B12
403% | B13
459% | B14
100% | B15
497% | B16
547% | B17

These binders were tested against T1, TNF-α (assay: competition ELISA: sample vs plate-bound TNFRI190 for TNF-α, from IC50, relative to wild-type TNFRI171).
Method: as §1, §2

Relative Affinity for Ligand (%) | Binder
100% | B1
